In patent US20190153119A1 one finds EC50 data, which are given here for 3 substances.

Test [1] concerns the target TF on A431 cells (human) (UniProt P13726). The experiment in a line: flow. The note with it: Fc fusion.
Test [2] has the same target. In words: flow. The note with it: Fc fusion. The source holds these as a separate data set.

Chain of UniProt P13726 (P13726 33-295): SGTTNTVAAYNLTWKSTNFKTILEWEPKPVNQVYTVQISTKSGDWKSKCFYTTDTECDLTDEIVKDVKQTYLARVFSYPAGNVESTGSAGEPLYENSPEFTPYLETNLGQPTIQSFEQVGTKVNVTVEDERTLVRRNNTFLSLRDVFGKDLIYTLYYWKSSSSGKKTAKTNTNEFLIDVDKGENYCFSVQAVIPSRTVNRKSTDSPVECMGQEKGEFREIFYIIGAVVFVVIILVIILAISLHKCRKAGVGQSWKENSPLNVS

For ICON1_BHK, the EC50 with TF on A431 cells (human) [1] was found to be 2.5 nM; in the test with TF on A431 cells (human) [2] it was 3.59 nM. Consider 2-armed ICON1 [Lot 10.1.1], for which the concentration for a half-maximal effect (EC50) in the test with TF on A431 cells (human) [1] turned out to be 15 nM.

Regarding ICON1_CHO, in the test with TF on A431 cells (human) [1], the half-maximal effective concentration (EC50) turned out to be 12.9 nM.

The term EC50 denotes the concentration at which the effect is half-maximal. A lower EC50 goes with an effect from little substance.
